In patent publication US20240018252A1 (Pfizer, published 2024):

What was measured:
human BCMA [1] = target: T1, human BCMA (human, UniProt Q02223 1-54); experiment: SPR, immobilised IgG, 25° C
T1 construct: also called huBCMA; hBCMA
T1 sequence: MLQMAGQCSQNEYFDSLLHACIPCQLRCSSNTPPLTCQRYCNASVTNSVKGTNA

cyBCMA [2] = target: T2, cyBCMA (cynomolgus, UniProt A0A2K5UD97 1-53); experiment: SPR, immobilised IgG, 25° C
T2 construct: Soluble analyte in SPR; construct not described; also called cyno BCMA

human BCMA [3] = target: T1, human BCMA; experiment: SPR, immobilised IgG, 37° C
cyBCMA [4] = target: T2, cyBCMA; experiment: SPR, immobilised IgG, 37° C

T2 sequence (A0A2K5UD97 entry or part of it): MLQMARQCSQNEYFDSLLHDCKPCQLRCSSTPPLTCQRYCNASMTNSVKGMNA

Row | Binder | T½ (human BCMA [1]) | T½ (cyBCMA [2]) | T½ (human BCMA [3]) | T½ (cyBCMA [4])
1 | L1.GDF/L3.KW/H3.AL (antibody, V domains shown, IgG in the assay) VH: EVQLLESGGGLVQPGGSLRLSCAASGFTFGSYAMTWVRQAPGKGLEWVSAISGSGGNTFYADSVKGRFTISRDNSKNTLYLQMNSLRAEDTAVYYCARVSPIAALMDYWGQGTLVTVSS VL: EIVLTQSPGTLSLSPGERATLSCRASQSVGDFYLAWYQQKPGQAPRLLIYGASSRATGIPDRFSGSGSGTDFTLTISRLEPEDFAVYYCKHYGWPPSFTFGQGTKVEIK | 2.96 min | 0.6 min |  | 
2 | P6E01/P6E01 (antibody, V domains shown, IgG in the assay; also called P6E01_VHVL) VH: EVQLLESGGGLVQPGGSLRLSCAASGFTFGSYAMTWVRQAPGKGLEWVSAISGSGGNTFYADSVKGRFTISRDNSKNTLYLQMNSLRAEDTAVYYCARVSPIASGMDYWGQGTLVTVSS VL: not shown | 2.8 min |  |  | 
3 | P6E01/H3.AQ (antibody, V domains shown, IgG in the assay) VH: EVQLLESGGGLVQPGGSLRLSCAASGFTFGSYAMTWVRQAPGKGLEWVSAISGSGGNTFYADSVKGRFTISRDNSKNTLYLQMNSLRAEDTAVYYCARVSPIAAQMDYWGQGTLVTVSS VL: not shown | 33.5 min |  |  | 
4 | L1.GDF/L3.KW/H3.AQ (antibody, V domains shown, IgG in the assay) VH: EVQLLESGGGLVQPGGSLRLSCAASGFTFGSYAMTWVRQAPGKGLEWVSAISGSGGNTFYADSVKGRFTISRDNSKNTLYLQMNSLRAEDTAVYYCARVSPIAAQMDYWGQGTLVTVSS VL: EIVLTQSPGTLSLSPGERATLSCRASQSVGDFYLAWYQQKPGQAPRLLIYGASSRATGIPDRFSGSGSGTDFTLTISRLEPEDFAVYYCKHYGWPPSFTFGQGTKVEIK | 3.32 min | 2 min |  | 
5 | L3.PY/L1.PS/H3.YA (antibody, V domains shown, IgG in the assay) VH: EVQLLESGGGLVQPGGSLRLSCAASGFTFGSYAMTWVRQAPGKGLEWVSAISGSGGNTFYADSVKGRFTISRDNSKNTLYLQMNSLRAEDTAVYYCARVSPIYAGMDYWGQGTLVTVSS VL: EIVLTQSPGTLSLSPGERATLSCRASQSVSSSYPSWYQQKPGQAPRLLIYGASSRATGIPDRFSGSGSGTDFTLTISRLEPEDFAVYYCQHYPYPPSFTFGQGTKVEIK |  |  | 1.28 min | 1.16 min
6 | L3.PY/L1.PS/P6E01 (antibody, V domains shown, IgG in the assay) VH: EVQLLESGGGLVQPGGSLRLSCAASGFTFGSYAMTWVRQAPGKGLEWVSAISGSGGNTFYADSVKGRFTISRDNSKNTLYLQMNSLRAEDTAVYYCARVSPIASGMDYWGQGTLVTVSS VL: EIVLTQSPGTLSLSPGERATLSCRASQSVSSSYPSWYQQKPGQAPRLLIYGASSRATGIPDRFSGSGSGTDFTLTISRLEPEDFAVYYCQHYPYPPSFTFGQGTKVEIK |  |  | 10.2 min | 1.91 min
7 | L1.GDF/L3.KW/H3.AP (antibody, V domains shown, IgG in the assay) VH: EVQLLESGGGLVQPGGSLRLSCAASGFTFGSYAMTWVRQAPGKGLEWVSAISGSGGNTFYADSVKGRFTISRDNSKNTLYLQMNSLRAEDTAVYYCARVSPIAAPMDYWGQGTLVTVSS VL: EIVLTQSPGTLSLSPGERATLSCRASQSVGDFYLAWYQQKPGQAPRLLIYGASSRATGIPDRFSGSGSGTDFTLTISRLEPEDFAVYYCKHYGWPPSFTFGQGTKVEIK | 2.51 min | 0.6 min |  | 
8 | L3.PY/L3.KF/P6E01 (antibody, V domains shown, IgG in the assay) VH: EVQLLESGGGLVQPGGSLRLSCAASGFTFGSYAMTWVRQAPGKGLEWVSAISGSGGNTFYADSVKGRFTISRDNSKNTLYLQMNSLRAEDTAVYYCARVSPIASGMDYWGQGTLVTVSS VL: EIVLTQSPGTLSLSPGERATLSCRASQSVSSSYLAWYQQKPGQAPRLLIYGASSRATGIPDRFSGSGSGTDFTLTISRLEPEDFAVYYCKFYPYPPSFTFGQGTKVEIK |  |  | 5.56 min | 1.39 min
9 | L3.PY/L3.KY/P6E01 (antibody, V domains shown, IgG in the assay) VH: EVQLLESGGGLVQPGGSLRLSCAASGFTFGSYAMTWVRQAPGKGLEWVSAISGSGGNTFYADSVKGRFTISRDNSKNTLYLQMNSLRAEDTAVYYCARVSPIASGMDYWGQGTLVTVSS VL: EIVLTQSPGTLSLSPGERATLSCRASQSVSSSYLAWYQQKPGQAPRLLIYGASSRATGIPDRFSGSGSGTDFTLTISRLEPEDFAVYYCKYYPYPPSFTFGQGTKVEIK |  |  | 10.7 min | 2.3 min
